Measurements reported in PMC5529062 (Science Advances, 2017).

Biological target: P22 coat protein (CP) monomers (bacteriophage P22, UniProt P26747 1-430)
Experiment: SEC

Sequence of P22 coat protein (CP) monomers (P26747 whole entry): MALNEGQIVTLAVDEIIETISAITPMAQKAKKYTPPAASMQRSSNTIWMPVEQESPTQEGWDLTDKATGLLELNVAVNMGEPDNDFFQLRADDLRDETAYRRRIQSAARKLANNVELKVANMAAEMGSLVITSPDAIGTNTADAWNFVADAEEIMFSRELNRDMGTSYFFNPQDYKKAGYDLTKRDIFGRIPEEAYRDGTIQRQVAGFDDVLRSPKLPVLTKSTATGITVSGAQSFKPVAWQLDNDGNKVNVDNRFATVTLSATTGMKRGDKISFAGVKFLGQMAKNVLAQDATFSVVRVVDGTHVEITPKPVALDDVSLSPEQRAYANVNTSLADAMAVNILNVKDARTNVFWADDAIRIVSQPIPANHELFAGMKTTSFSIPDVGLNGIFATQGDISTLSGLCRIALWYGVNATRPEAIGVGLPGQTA

B1: P22 scaffolding protein (SP) (natural protein, bacteriophage P22, UniProt P26748 1-303, looked up)
chain: MEPTTEIQATEDLTLSGDHAAASADSLVVDNANDNAGQEEGFEIVLKDDETAPKQDPAKNAEFARRRIERKRQRELEQQMEAVKRGELPESLRVNPDLPPQPDINAYLSEEGLAKYDYDNSRALAAFNAANTEWLMKAQDARSNAVAEQGRKTQEFTQQSAQYVEAARKHYDAAEKLNIPDYQEKEDAFMQLVPPAVGADIMRLFPEKSAALMYHLGANPEKARQLLAMDGQSALIELTRLSERLTLKPRGKQISSAPPADQPITGDVSAANKDAIRKQMDAAASKGDVETYRKLKAKLKGIR
B1: binds.
